# Substitutions are numbered along the chain they refer to. Names and notes keep the numbering of the source.
# T1: human connexin36 (Cx36) (human, UniProt Q9UKL4 1-321)
# T1 construct: whole, on cells; Hemichannel expressed in HEK 293FT cells for FETCH; also called GJD2; not shown: C-terminal fluorescent protein fusion (mEmerald or RFP670 in FETCH)
# T1 sequence (looked up): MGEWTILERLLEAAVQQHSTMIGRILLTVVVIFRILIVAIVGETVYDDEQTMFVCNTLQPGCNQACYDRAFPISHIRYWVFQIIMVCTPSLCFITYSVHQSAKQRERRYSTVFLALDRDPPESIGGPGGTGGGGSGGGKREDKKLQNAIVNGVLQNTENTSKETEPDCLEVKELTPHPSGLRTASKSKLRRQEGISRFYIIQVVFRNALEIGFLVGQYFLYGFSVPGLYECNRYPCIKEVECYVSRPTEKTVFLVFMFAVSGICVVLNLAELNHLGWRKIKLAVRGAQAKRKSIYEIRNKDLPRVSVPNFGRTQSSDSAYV
# B1: Cx35E224K (Morone americana Cx35 mutant E224K) (other)
# chain: MGEWTILERLLEAAVQQHSTMIGRILLTVVVIFRILIVAIVGETVYDDEQTMFVCNTLQPGCNQACYDKAFPISHIRYWVFQIIMVCTPSLCFITYSVHQSAKQKERRYSTVYLTLDKDQDSLKRDESKKIKNTIVNGVLQNTENSTKEAEPDCLEVKEIPNSAMRTTKSKMRRQEGISRFYIIQVVFRNALEIGFLVGQYFLYGFNVPSVYECDRYPCIKDVKCYVSRPTEKTVFLVFMFAVSGFCVVLNLAELNHLGWRKIKTAVRGVQARRKSIYEIRNKDLPRMSVPNFGRTQSSDSAYV
# notes: Extracellular loop mutant of the screening library; not shown: C-terminal fluorescent protein fusion (mEmerald or RFP670 in FETCH)
# B2: Cx35E224H (Morone americana Cx35 mutant E224H) (other)
# chain: B1 chain with K224H
# notes: as for B1
# B3: Cx35 mutant Y78S (Morone americana) (other)
# chain: B1 chain with Y78S, K224E
# notes: Extracellular loop mutant of the screening library; also called Cx35 Y78S; not shown: C-terminal fluorescent protein fusion (mEmerald or RFP670 in FETCH)
# B4: Cx35 mutant Y78T (Morone americana) (other)
# chain: B1 chain with Y78T, K224E
# notes: Extracellular loop mutant of the screening library; also called Cx35 Y78T; not shown: C-terminal fluorescent protein fusion (mEmerald or RFP670 in FETCH)
# B5: Cx35 mutant N56E (Morone americana) (other)
# chain: B1 chain with N56E, K224E
# notes: Extracellular loop mutant of the screening library; also called Cx35 N56E; not shown: C-terminal fluorescent protein fusion (mEmerald or RFP670 in FETCH)
# B6: Cx35 mutant L237Y (Morone americana) (other)
# chain: B1 chain with K224E, L237Y
# notes: Extracellular loop mutant of the screening library; also called Cx35 L237Y; not shown: C-terminal fluorescent protein fusion (mEmerald or RFP670 in FETCH)
# B7: Cx35 mutant Y78V (Morone americana) (other)
# chain: B1 chain with Y78V, K224E
# notes: Extracellular loop mutant of the screening library; also called Cx35 Y78V; not shown: C-terminal fluorescent protein fusion (mEmerald or RFP670 in FETCH)
# B8: Cx34.7 mutant Y78S (Morone americana) (other)
# chain: MGEWTILERLLEAAVQQHSTMIGRILLTVVVIFRILIVAIVGETVYEDEQAMFICNTLQPGCNQACYDKAFPISHIRSWVFQIILVCTPSLCFITYSVHQSAKQKDRRYSFLYPIMERDYGGRDGARKLRNINGILVQHGGDGGGGKEEPDCLEVKEIPNAPRGLTHGKSSKVRRQEGISRFYIIQVVFRNALEIGFLAGQYFLYGFSVPGIFECDRYPCLKEVECYVSRPTEKTVFLVFMFAVSGICVVLNLAELNHLGWRKIKAAIRGVQARRKSICEIRKKDMAHLSQPPNLGRTQSSESAYV
# notes: Extracellular loop mutant of the screening library; also called Cx34.7 Y78S; not shown: C-terminal fluorescent protein fusion (mEmerald or RFP670 in FETCH)
# B9: Cx34.7 mutant Y78T (Morone americana) (other)
# chain: B8 chain with S78T
# notes: Extracellular loop mutant of the screening library; also called Cx34.7 Y78T; not shown: C-terminal fluorescent protein fusion (mEmerald or RFP670 in FETCH)
# B10: Cx34.7 mutant E225R (Morone americana) (other)
# chain: B8 chain with S78Y, E225R
# notes: Extracellular loop mutant of the screening library; also called Cx34.7 E225R; not shown: C-terminal fluorescent protein fusion (mEmerald or RFP670 in FETCH)
# B11: Cx34.7 mutant L238Y (Morone americana) (other)
# chain: B8 chain with S78Y, L238Y
# notes: Extracellular loop mutant of the screening library; also called Cx34.7 L238Y; not shown: C-terminal fluorescent protein fusion (mEmerald or RFP670 in FETCH)
# B12: Cx34.7 mutant E225K (Morone americana) (other)
# chain: B8 chain with S78Y, E225K
# notes: Extracellular loop mutant of the screening library; also called Cx34.7 E225K; not shown: C-terminal fluorescent protein fusion (mEmerald or RFP670 in FETCH)
# B13: Cx34.7 mutant Y78V (Morone americana) (other)
# chain: B8 chain with S78V
# notes: Extracellular loop mutant of the screening library; also called Cx34.7 Y78V; not shown: C-terminal fluorescent protein fusion (mEmerald or RFP670 in FETCH)
# B14: Wild-type Connexin35 (Cx35) of Morone americana (other)
# chain: B1 chain with K224E
# notes: Connexin hemichannel (hexamer) expressed in HEK 293FT cells; In C. elegans it was expressed as GFP or mCherry fusion; also called Cx35WT; not shown: C-terminal fluorescent protein fusion (mEmerald or RFP670 in FETCH)
# Target: T1, human connexin36 (Cx36)
# Test: heterotypic FETCH
# Description: (§1) Complete FETCH methodology is outlined in Ransey et. al. 2021 (Ransey E, et al. (2021) BioRxiv). Briefly, replica multi-well plates with HEK 293FT cells were transfected with either of the two connexin proteins being evaluated for docking. Following a transfection incubation period, experimental counterparts were combined, replated, and further incubated for about 20 hr to about 24 hrs, allowing cells to make contacts and potentially generate connexosomes. Co-plated samples were trypsinized, fixed in suspension and analyzed via flow cytometry. Flow cytometry data was processed with two selection gates prior to their fluorescence evaluation. First, putative HEK cells were identified by evaluating sample forward vs. side scatter area. Next, single cells were identified as the putative cells that maintained a linear correlation of forward scatter height to forward scatter area. Finally, the dual fluorescence (mEmerald vs. RFP670) profiles of each sample was generated, and the FETCH score was defined as the proportion of dual-labeled fluorescent cells that develop in a co-plated sample.
row,Binder,binding result
1,B1,no binding

# Target: T2, human connexin43 (Cx43) (human, UniProt P17302 2-382)
# T2 construct: whole, on cells; Hemichannel expressed in HEK 293FT cells for FETCH; also called GJA1; not shown: C-terminal fluorescent protein fusion (mEmerald or RFP670 in FETCH)
# Test: heterotypic FETCH
# Description: as §1
# T2 sequence (P17302 2-382): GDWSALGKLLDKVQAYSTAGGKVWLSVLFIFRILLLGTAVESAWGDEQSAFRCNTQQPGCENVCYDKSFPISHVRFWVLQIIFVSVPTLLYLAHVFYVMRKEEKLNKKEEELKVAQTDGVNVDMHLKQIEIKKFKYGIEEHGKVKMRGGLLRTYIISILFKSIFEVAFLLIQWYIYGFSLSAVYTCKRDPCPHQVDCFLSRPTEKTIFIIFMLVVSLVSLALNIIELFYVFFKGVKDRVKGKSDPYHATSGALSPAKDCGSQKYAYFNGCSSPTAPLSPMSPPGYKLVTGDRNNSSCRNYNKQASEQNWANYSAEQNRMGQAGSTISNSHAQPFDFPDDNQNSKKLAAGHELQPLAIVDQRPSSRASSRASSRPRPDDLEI
row,Binder,binding result
1,B2,no binding
2,B1,no binding

# Target: the molecule itself
# Test: homotypic FETCH screen
# Description: as §1
# For screening analysis, five FETCH replicates were obtained for each condition (mutation). These scores were benchmarked against scores for Cx36 and Cx45 (FETCH=1.2±0.1%, n=54 replicates). To quantitatively determine whether a connexin pair docked, FETCH scores were determined for the dual fluorescence of cells under conditions where docking was not anticipated. These conditions included pairs of connexins previously established to not show docking: (i) Cx36 and Cx45 (FETCH=0.7±0.0%, n=59 replicates), (ii) homotypic Cx23 (FETCH=0.9±0.4%, n=6 previously collected replicates (Ransey E, et al. (2021) BioRxiv), and (iii) Cx36 and Cx43 (FETCH=1.2±0.2%, n=10 previously collected replicates (Ransey E, et al. (2021) BioRxiv), and under conditions for which cells were transfected with cytoplasmic fluorophores rather than tagged connexins (FETCH=4.4±0.6%, n=17 previously collected replicates (Ransey E, et al. (2021) BioRxiv).
row,Binder,binding result
1,B3,no binding
2,B2,no binding
3,B4,no binding
4,B5,no binding
5,B6,no binding
6,B7,no binding
7,B1,no binding
8,B8,no binding
9,B9,no binding
10,B10,no binding
11,B11,no binding
12,B12,no binding
13,B13,no binding

# Target: T1, human connexin36 (Cx36)
# Test: FETCH (flow cytometry, % dual-labelled HEK 293FT cells), heterotypic
# Description: as §1
row,Binder,FETCH score [%]
1,B14,18
2,B2,5.9
3,B1,0.8

# Target: T2, human connexin43 (Cx43)
# Test: FETCH (flow cytometry, % dual-labelled HEK 293FT cells), heterotypic, n=6
# Description: as §1
row,Binder,FETCH score [%]
1,B2,0.4
2,B1,0.5
